# Reference: the Human Domainome abundance scans (Beltran et al. 2025)
# ± gives the uncertainty stated by the source.
# B1: Nanos homolog 2, residues 63 to 115; numbered along this chain, P60321 (parent)
# chain: CNFCKHNGESRHVYSSHQLKTPDGVVVCPILRHYVCPVCGATGDQAHTLKYCP
# Variants of: B1
# Assay: abundance fitness (aPCA) (normalised: wild type 0, dead -1); higher = more abundant; growth selection in yeast, the domain comes from the species named
# Conditions: Homo sapiens
row,Variant,abundance fitness
1,V26P,-0.359 ± 0.17
2,V26R,-0.523 ± 0.087
3,R32W,-0.419 ± 0.1
4,R32D,-0.376 ± 0.14
5,R32H,-0.368 ± 0.16
6,R32P,-0.715 ± 0.14
7,R32F,-0.514 ± 0.17
8,R32C,-0.662 ± 0.14
9,R32M,-0.18 ± 0.11
10,R32S,-0.225 ± 0.09
11,R32V,-0.473 ± 0.06
12,R32K,-0.204 ± 0.14
13,R32Q,-0.446 ± 0.13
14,R32N,-0.522 ± 0.19
15,R32A,-0.241 ± 0.083
16,R32G,-0.352 ± 0.069
17,R32E,-0.49 ± 0.11
18,R32T,-0.204 ± 0.065
19,R32I,-0.434 ± 0.064
20,R32L,-0.427 ± 0.09
21,D44R,-0.403 ± 0.084

row,Variant,abundance fitness
1,D44L,-0.453 ± 0.084
2,D44P,-0.274 ± 0.1
3,D44H,-0.514 ± 0.23
4,D44E,-0.334 ± 0.14
5,D44G,-0.048 ± 0.059
6,D44M,-0.271 ± 0.063
7,D44F,0.009 ± 0.15
8,D44N,-0.047 ± 0.1
9,D44C,-0.391 ± 0.12
10,D44I,-0.457 ± 0.25
11,D44Q,-0.25 ± 0.11
12,I30M,0.015 ± 0.11
13,I30C,-0.304 ± 0.15
14,I30F,-0.524 ± 0.2
15,I30H,0.041 ± 0.2
16,I30E,-0.108 ± 0.13
17,I30L,-0.033 ± 0.084
18,I30Q,-0.05 ± 0.12
19,I30G,-0.081 ± 0.065
20,I30T,0.111 ± 0.098
21,I30D,-0.345 ± 0.28

row,Variant,abundance fitness
1,I30N,0.039 ± 0.18
2,I30A,0.084 ± 0.1
3,I30P,-0.249 ± 0.091
4,I30K,0.127 ± 0.089
5,I30W,-0.346 ± 0.11
6,I30S,0.082 ± 0.06
7,L31R,-0.415 ± 0.074
8,L31C,-0.416 ± 0.14
9,L31D,-0.622 ± 0.23
10,L31T,-0.207 ± 0.13
11,L31P,-0.444 ± 0.15
12,L31I,-0.16 ± 0.17
13,L31M,-0.153 ± 0.11
14,L31V,-0.284 ± 0.066
15,L31S,-0.433 ± 0.09
16,L31N,-0.547 ± 0.18
17,L31W,-0.566 ± 0.15
18,L31Y,-0.66 ± 0.24
19,L31G,-0.443 ± 0.081
20,L31A,-0.117 ± 0.069
21,L31H,-0.271 ± 0.15

row,Variant,abundance fitness
1,L31Q,-0.349 ± 0.097
2,L31E,-0.339 ± 0.078
3,L31K,-0.271 ± 0.11
4,C36P,-0.74 ± 0.24
5,C36D,-0.444 ± 0.11
6,C36T,-0.804 ± 0.29
7,C36W,-1.16 ± 0.43
8,C36E,-0.627 ± 0.1
9,C36Y,-0.726 ± 0.23
10,C36S,-0.699 ± 0.094
11,C36M,-0.75 ± 0.094
12,C36Q,-0.471 ± 0.22
13,C36I,-0.976 ± 0.36
14,C36F,-0.888 ± 0.13
15,C36V,-0.93 ± 0.098
16,C36H,-0.623 ± 0.31
17,C36R,-0.658 ± 0.083
18,C36L,-1 ± 0.11
19,C36A,-0.416 ± 0.1
20,C36G,-0.826 ± 0.086
21,C36N,-0.675 ± 0.11
